Consider 15 molecules from patent US20260374820 (published 2026).

Bridges are numbered along the chain shown (N, C = ends). Where no end group is shown, it is not given here.

The labels stand for the following.
T1: human MuSK (human, UniProt O15146)
T1 chain: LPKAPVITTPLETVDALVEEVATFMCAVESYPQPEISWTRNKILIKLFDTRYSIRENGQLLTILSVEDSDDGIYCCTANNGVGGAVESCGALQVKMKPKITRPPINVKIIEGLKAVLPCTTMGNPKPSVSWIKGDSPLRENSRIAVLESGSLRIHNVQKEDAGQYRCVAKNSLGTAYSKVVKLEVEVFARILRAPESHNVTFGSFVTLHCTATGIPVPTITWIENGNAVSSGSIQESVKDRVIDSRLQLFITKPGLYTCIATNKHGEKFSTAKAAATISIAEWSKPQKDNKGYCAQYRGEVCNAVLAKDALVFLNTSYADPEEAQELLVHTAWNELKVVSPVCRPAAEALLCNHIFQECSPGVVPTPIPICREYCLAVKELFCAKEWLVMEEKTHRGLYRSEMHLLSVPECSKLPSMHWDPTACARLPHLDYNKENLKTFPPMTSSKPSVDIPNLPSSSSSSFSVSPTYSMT

T2: mouse MuSK (mouse, UniProt Q61006)
T2 chain: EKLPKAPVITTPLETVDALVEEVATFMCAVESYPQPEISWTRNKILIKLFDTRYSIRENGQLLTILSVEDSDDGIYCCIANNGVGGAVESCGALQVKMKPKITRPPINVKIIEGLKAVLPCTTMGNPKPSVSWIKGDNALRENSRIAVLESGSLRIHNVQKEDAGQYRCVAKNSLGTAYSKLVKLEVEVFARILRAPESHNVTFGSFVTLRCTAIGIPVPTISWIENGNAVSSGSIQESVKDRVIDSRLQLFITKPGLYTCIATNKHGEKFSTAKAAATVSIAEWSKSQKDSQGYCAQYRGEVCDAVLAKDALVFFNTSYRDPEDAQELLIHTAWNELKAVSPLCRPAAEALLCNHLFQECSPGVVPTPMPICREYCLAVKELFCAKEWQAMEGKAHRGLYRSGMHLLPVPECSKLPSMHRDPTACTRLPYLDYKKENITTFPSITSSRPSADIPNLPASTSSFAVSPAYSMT

T3: rat MuSK (rat, UniProt Q62838)
T3 chain: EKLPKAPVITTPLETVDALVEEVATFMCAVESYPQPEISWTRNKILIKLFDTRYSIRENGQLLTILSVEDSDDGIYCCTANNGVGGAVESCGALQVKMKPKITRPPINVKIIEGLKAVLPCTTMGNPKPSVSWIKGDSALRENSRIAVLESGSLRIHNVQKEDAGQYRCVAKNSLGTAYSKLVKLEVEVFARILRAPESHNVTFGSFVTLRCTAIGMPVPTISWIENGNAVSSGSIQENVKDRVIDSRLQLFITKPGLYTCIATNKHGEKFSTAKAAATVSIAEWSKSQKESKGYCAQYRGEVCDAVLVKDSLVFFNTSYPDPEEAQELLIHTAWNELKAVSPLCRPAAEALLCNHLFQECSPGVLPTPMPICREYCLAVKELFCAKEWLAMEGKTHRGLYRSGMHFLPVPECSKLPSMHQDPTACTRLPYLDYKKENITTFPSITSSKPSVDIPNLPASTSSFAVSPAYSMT

B1: MuSK1Ac (peptide)
chain: YLPEFSWPESFVLFLRQRQRQLGRGAE
modifications: also: name suffix Ac, meaning not given here
B2: MuSK7 (peptide)
chain: {CH2CO}-YPSYHTNVVASLKRC
modifications: thioether N-15 (inferred); not fully specified (C-terminus)
B3: MuSK4 (peptide)
chain: {CH2CO}-YFPTNVVSLLKSC
modifications: thioether N-13 (inferred); not fully specified (C-terminus)
B4: MuSK1 (peptide)
chain: YLPEFSWPESFVLFLRQRQRQLGRGAE
modifications: not fully specified (bridges); also: thioether macrocycle stated, places not given here
B5: MuSK7-pal (peptide)
chain 1: YPSYHTNVVASLKRC
chain 2: YPSYHTNVVASLKRC
modifications: macrocyclic homodimer with palmitoyl group
B6: MuSK9 PEG3 dimer (peptide)
chain 1: YWYLQPGYVNIVTSYHC
chain 2: YWYLQPGYVNIVTSYHC
modifications: not fully specified (N-terminus, C-terminus, bridges); cysteine pairing not given here; also: homodimer via PEG3 linker, attachment not given here
B7: MuSK9 PEG11 dimer (peptide)
chain 1: YWYLQPGYVNIVTSYHC
chain 2: YWYLQPGYVNIVTSYHC
modifications: not fully specified (N-terminus, C-terminus, bridges); cysteine pairing not given here; also: homodimer via Bis-Mal-dPEG11 linker, attachment not given here
B8: MuSK7 PEG3 dimer (peptide)
chain 1: YPSYHTNVVASLKRC
chain 2: YPSYHTNVVASLKRC
modifications: not fully specified (N-terminus, C-terminus, bridges); cysteine pairing not given here; also: homodimer via PEG3 linker, attachment not given here
B9: MuSK4 PEG11 dimer (peptide)
chain 1: YFPTNVVSLLKSC
chain 2: YFPTNVVSLLKSC
modifications: not fully specified (N-terminus, C-terminus, bridges); cysteine pairing not given here; also: homodimer via Bis-Mal-dPEG11 linker, attachment not given here
B10: MuSK1Ac PEG11 dimer (protein)
chain 1: YLPEFSWPESFVLFLRQRQRQLGRGAE
chain 2: YLPEFSWPESFVLFLRQRQRQLGRGAE
modifications: also: homodimer via PEG11 linker, attachment not given here, name suffix Ac, meaning not given here
B11: MuSK1Ac Term PEG3 dimer (protein)
chain 1: YLPEFSWPESFVLFLRQRQRQLGRGAE
chain 2: YLPEFSWPESFVLFLRQRQRQLGRGAE
modifications: also: homodimer via terminal PEG3 linker, terminus not given here, name suffix Ac, meaning not given here
B12: MuSK1Ac PEG3 dimer (protein)
chain 1: YLPEFSWPESFVLFLRQRQRQLGRGAE
chain 2: YLPEFSWPESFVLFLRQRQRQLGRGAE
modifications: also: homodimer via PEG3 linker, attachment not given here, name suffix Ac, meaning not given here
B13: MuSK7 PEG11 dimer (peptide)
chain 1: YPSYHTNVVASLKRC
chain 2: YPSYHTNVVASLKRC
modifications: not fully specified (N-terminus, C-terminus, bridges); cysteine pairing not given here; also: homodimer via Bis-Mal-dPEG11 linker, attachment not given here
B14: MuSK4 PEG3 dimer (peptide)
chain 1: YFPTNVVSLLKSC
chain 2: YFPTNVVSLLKSC
modifications: not fully specified (N-terminus, C-terminus, bridges); cysteine pairing not given here; also: homodimer via PEG3 linker, attachment not given here
B15: MuSK1Ac Term PEG11 dimer (protein)
chain 1: YLPEFSWPESFVLFLRQRQRQLGRGAE
chain 2: YLPEFSWPESFVLFLRQRQRQLGRGAE
modifications: also: homodimer via terminal PEG11 linker, terminus not given here, name suffix Ac, meaning not given here

The target in one assay is T1, human MuSK. The experiment in a line: SPR. (In general: Surface plasmon resonance follows binding to a sensor surface in real time, without labels.)
As a reminder, the Kd is the concentration at which binding is half-saturated. Molecule B1 displayed a dissociation constant (Kd) of 1.6 nM. In other words, the single-digit nanomolar range.

The molecule B2 returned a dissociation constant (Kd) of 160 nM.

In the case of B3, the equilibrium dissociation constant (Kd) turned out to be 250 nM.

Consider B4, for which binding was put at a Kd of 2.2 nM.

A further assay deals with T1, human MuSK. The experiment in a line: SPR. The source holds these as a separate data set.
As to B5, the Kd amounted to 0.9 nM. This counts as sub-nanomolar.

Another assay deals with T1, human MuSK. The experiment in a line: SPR. This is another data set of the same source.
Regarding B6, binding was characterised by a dissociation constant (Kd) of 2.1 nM.

As to B7, the Kd was found to be 3.9 nM. This Kd is about 1.9-fold higher than that of the molecule before.

On to B8, for which binding was characterised by a dissociation constant (Kd) of 0.62 nM.

As to B9, the Kd was determined as 6.9 nM.

On to B10, for which the dissociation constant Kd is 1.5 nM.

For B11, the Kd was 6 nM.

B12 registered a Kd of 4.4 nM.

In turn, B13 showed a dissociation constant (Kd) of 1.3 nM.

Turning to B14, the equilibrium dissociation constant (Kd) was found to be 6.8 nM. This Kd is about 5.2-fold higher than that of the molecule before.

In the case of B15, the Kd turned out to be 3.6 nM.

Another assay addresses T2, mouse MuSK. The experiment in a line: SPR.
For the molecule B5, the equilibrium dissociation constant (Kd) was 8.8 nM.

The next assay has as its target T3, rat MuSK. The experiment in a line: SPR.
In turn, B5 had an equilibrium dissociation constant (Kd) of 2 nM. In other words, the single-digit nanomolar range.
